Reference: patent US20120213771A1 (CELLDEX THERAPEUTICS, published 2012)
Positions count from the first letter of the chain named. Where “and” joins values, the source holds several entries; their conditions need not be identical. Equal entries are not always repeated.

T1: recombinant purified human CD27 (human, UniProt P26842 20-191)
T1 construct: also called soluble or recombinant human CD27
T1 sequence: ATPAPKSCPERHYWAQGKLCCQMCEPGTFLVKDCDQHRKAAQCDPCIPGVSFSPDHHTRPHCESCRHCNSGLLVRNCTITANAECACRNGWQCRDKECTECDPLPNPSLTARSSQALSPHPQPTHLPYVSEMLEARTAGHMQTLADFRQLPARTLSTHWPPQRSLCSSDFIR

B1: 1G5-1B9 (antibody, V domains shown)
VH: QVQLVESGGGVVQPGRSLRLSCAASGFSFSSYGMHWVRQAPGKGLEWVALLWYDGSHKDFADSVKGRFTISRDNSKNTLDLQMNSLRAEDTAVYYCAREGLAVPGHWYFDLWGRGTLVTVSS
VL: AIQLTQSPSSLSASVGDRVTITCRASQGISSALAWYQQKPGKAPKLLIYDASSLESGVPSRFSGSGSGTDFTLTISSLQPEDFATYYCQQFNTYPRTFGQGTKVEIK
notes: Human IgG from hybridoma
B2: 1F5-1H5 (antibody, V domains shown)
VH: QVQLVESGGGVVQPGRSLRLSCAASGFTFSSYDMHWVRQAPGKGLEWVAVIWYDGSNKYYADSVKGRFTISRDNSKNTLYLQMNSLRAEDTAVYYCARGSGNWGFFDYWGQGTLVTVSS
VL: B1 VL with A1D, L4M, S31R, A32W, G41E, L46S, D50A, E55Q, F91Y
notes: Fully human IgG from HuMAb mouse hybridoma, protein A purified; Human IgG1 is used as its isotype control; also called mAb 1F5; anti-CD27 mAb 1F5
B3: 1H8-B4 (antibody, V domains shown)
VH: QVQLVESGGGVVQPGRSLRLSCAASGFTFNIYDMHWVRQAPGKGLEWVAVIWYDGSNQYYADSVKGRFTISRDNSKNTLYLQMNILRAEDTAVYYCARGTHWGYFDYWGQGTLVTVSS
VL: B1 VL with A1D, L4M, A32W, G41E, L46S, D50A, S53N, E55Q, F91Y, T93S
notes: Human IgG from hybridoma
B4: 3H12-1E12 (antibody, V domains shown)
VH: B2 VH with A24T, R87G, A88D
VL: B1 VL with A1D, L4M, S31R, A32W, G41E, L46S, D50A, E55Q, F91Y
notes: Human IgG from hybridoma; Two subclones (3H12-1C8 and 3H12-1E12) are both called 3H12; also called 3H12-1C8
B5: 3H8-1B11 (antibody, V domains shown)
VH: EVQLVESGGGLVQPGGSLRLSCAASGFTFSSYWMAWVRQAPGKGLEWLGNIKQDGSEKYYVDSVKGRFTISRDNAKNSLYLQMNSLRAEDTAVYYCVRELGMDWYFDLWGRGTLVTVSS
VL: EIVLTQSPATLSLSPGERATLSCRASQSVDSYLAWYQQKPGQAPRLLIYDASNRATGIPARFSGSGSGTDFTLTISNLEPEDFAVYYCQQRSNWPPTFGQGTKVEIK
notes: Human IgG from hybridoma
B6: 2G9-1D11 (antibody, V domains shown)
VH: QVQLVESGGGVVQPGRSLRLSCAASGFTLSSHDIHWVRQAPGKGLEWVAVIWNDGSNKYYADSVKGRFTISRDNSTNSLFLQMNSLRAEDTAVYYCVRGTADLEHWDQGTLVTVSS
VL: DIQMTQSPSSLSASVGDRVTITCRASQGISSWLAWYQQKPEKAPKSLIYAASSLQSGVPSRFSGSGSGTDFTLTISSLQPEDFATYYCQQYNSYPLTFGGGTKVEIK
notes: Human IgG from hybridoma
B7: 3A10-G10 (antibody, V domains shown)
VH: QVQLVESGGGVVQPGRSLRLSCAASGFTFSHYGMHWVRQAPGKGPEWVAIIWYDGSNKYYADSVKGRFTISRDNSKNTLDLQMNSLRAEDTAVYYCARDGWTTMVRGLNVFDIWGQGTMVTVSS
VL: B6 VL with G28D, L96P, G100Q, K103R, V104L
notes: Human IgG from hybridoma; also called 3A10-1G10
B8: 2C2-1A10 (antibody, V domains shown)
VH: B6 VH with L29F, H32Y, R98G
VL: B6 VL
notes: Human IgG from hybridoma

These binders were tested against T1, recombinant purified human CD27 (assay: ELISA on CD27-coated plates, half-max binding (C value of 4-parameter fit)).
Experimental: Microtiter plates were coated with soluble or recombinant human or macaque CD27 in PBS, and then blocked with 5% bovine serum albumin in PBS. Protein A purified human mAbs and an isotype control were added at […] concentrations and incubated at 37° C. The plates were washed with PBS/Tween and then incubated with a goat-anti-human IgG Fc-specific polyclonal reagent conjugated to alkaline phosphatase at 37° C. After washing, the plates were developed with pNPP substrate (1 mg/ml), and analyzed at OD 405-650 using a microtiter plate reader.

| EC50 | Binder |
| --- | --- |
| 0.49 nM and 0.074 µg/mL | B1 |
| 0.39 nM and 0.059 µg/mL | B2 |
| 0.43 nM and 0.064 µg/mL | B3 |
| 0.57 nM and 0.085 µg/mL | B4 |
| 0.46 nM and 0.069 µg/mL | B5 |
| 0.43 nM and 0.064 µg/mL | B6 |
| 0.63 nM and 0.094 µg/mL | B7 |
| 0.3 nM and 0.045 µg/mL | B8 |

Each binder was assayed against T2, purified recombinant monkey (macaque) CD27 (macaque) (assay: ELISA on plate-bound monkey CD27, half-max binding).
T2 construct: The paragraph speaks of cynomolgus macaques as the model; the protein itself is only called macaque / monkey CD27; Captured with anti-Flag antibody in one format; also called monkey CD27

| EC50 | Binder |
| --- | --- |
| 0.065 µg/mL | B1 |
| 0.12 µg/mL | B2 |
| 0.105 µg/mL | B3 |
| 0.123 µg/mL | B4 |
| 0.065 µg/mL | B5 |
| 0.069 µg/mL | B6 |
| 0.034 µg/mL | B8 |
